# PMC3733885, “Structures of an Apo and a Binary Complex of an Evolved Archeal B Family DNA Polymerase Capable of Synthesising Highly Cy-Dye Labelled DNA”
# B1: primer:template duplex (crystal) (dsDNA)
# DNA 1: ACGGGTAAGCA
# DNA 2: TGCTTACC
# modifications: 3'-terminal C of primer is 2',3'-dideoxycytidine (DOC)
# Target: T1, Pfu-E10 DNA polymerase (evolved Pfu polB variant) (Pyrococcus furiosus, UniProt P61875 1-775, R407I)
# T1 sequence: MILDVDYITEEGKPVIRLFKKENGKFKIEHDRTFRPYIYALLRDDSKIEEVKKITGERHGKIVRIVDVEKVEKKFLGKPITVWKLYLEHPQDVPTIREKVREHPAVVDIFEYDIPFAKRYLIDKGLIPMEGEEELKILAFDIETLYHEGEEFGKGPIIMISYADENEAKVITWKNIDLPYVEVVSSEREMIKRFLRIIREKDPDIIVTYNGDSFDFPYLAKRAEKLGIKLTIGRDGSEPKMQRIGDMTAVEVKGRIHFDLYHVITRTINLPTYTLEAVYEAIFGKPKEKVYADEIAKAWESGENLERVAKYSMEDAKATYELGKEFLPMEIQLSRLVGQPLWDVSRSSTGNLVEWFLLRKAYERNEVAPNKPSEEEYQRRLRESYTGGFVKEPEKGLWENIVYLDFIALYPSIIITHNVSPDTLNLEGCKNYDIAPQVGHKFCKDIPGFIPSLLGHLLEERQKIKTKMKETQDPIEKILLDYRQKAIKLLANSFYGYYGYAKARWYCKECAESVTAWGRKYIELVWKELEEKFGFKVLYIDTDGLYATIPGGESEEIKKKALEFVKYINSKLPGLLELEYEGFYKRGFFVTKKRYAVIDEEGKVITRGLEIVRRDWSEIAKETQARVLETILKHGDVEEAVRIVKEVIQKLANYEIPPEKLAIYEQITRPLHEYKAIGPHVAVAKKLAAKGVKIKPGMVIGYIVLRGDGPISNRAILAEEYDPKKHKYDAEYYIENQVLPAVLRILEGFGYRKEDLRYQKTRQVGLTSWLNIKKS
# Assay: X-ray crystallography (2.9 A); binary complex; 10 mM dCTP in crystallisation medium but no dNTP or metal ion seen at active site; Complex: 20 mM Tris, 50 mM NaCl, 5 mM MgCl2, 5% glycerol, 1 mM dCTP, 1:5 protein:DNA, 4 C overnight; crystals: 0.1 M Na cacodylate pH 6.5, 0.1 M Na citrate, 30% isopropanol, 10 mM dCTP
# Conditions: protein: recombinant; 5' overhang 3 nt (template)
binder,measurement,value
B1,binding result,binds
